Source: US10975142B2, “Endotrophin neutralization and use thereof” (THE BOARD OF REGENTS OF THE UNIVERSITY OF TEXAS SYSTEM, priority 2013, dated 2021)
Entries after “also recorded” stand apart in the source; their conditions may differ.

Tests used:
endotrophin+-tumors = assay: allografts of tumor pieces (Ctrl-tumor, ETP+-tumor) in wild-type hosts, cisplatin; assay type: in vivo, mouse; conditions: cisplatin 1 mg/kg, ip. twice a week
Method: (§1) FIGS. 20A-20C. Endotrophin overexpression confers cisplatin resistance in PyMT mice. FIG. 20A. 10-weeks-aged PyMT and PyMT/endotrophin (PyMT/ETP) mice were given high dosage of cisplatin (2.5 mg/kg, ip., 2 times/week). Tumor growth was determined by caliper measurements. Data represent mean±SD (n=7-10/group). ***p<0.001, PyMT/CIS vs. PyMT/ETP/CIS by 2-way ANOVA. FIGS. 20B-20C. A piece of tumors taken from PyMT (Ctrl-tumor) and PyMT/endotrophin (ETP^+-tumor) mice were implanted into isogenic wild-type hosts. Cisplatin (1 mg/kg, ip., 2 times/week) were injected at 3-weeks post implantation for tumor progression. Tumor volume was determined by caliper measurement. […] Data represent mean±SD (n=7-8/group). *p<0.05 vs. Ctrl-tumors by 2-way ANOVA. Representative images were taken at 70-days post implantation. Scale: 10 mm.

PyMT/endotrophin mice = assay: high dosage cisplatin in PyMT/endotrophin mice; assay type: in vivo, mouse; conditions: cisplatin 2.5 mg/kg, ip. twice a week
Method: as §1

ETP+-cancer cells = assay: allograft of FP635/ETP+-cancer cells in Matrigel plug with or without 10B6; assay type: in vivo, mouse
Method: (§2) FIGS. 8A-8I: 10B6 blocks ETP-mediated stromal expansion in vivo. (FIG. 8A) 10B6 (200 μg/mouse) was i.p. injected twice weekly into PyMT mice from 9 to 13 weeks of age. Tumor growth (mean±SEM; n=4-6 per group) was determined by weekly caliper measurements. *P<0.05, **P<0.01, ***P<0.001 vs. IgG control, 2-way ANOVA. (FIG. 8B) Primary mammary epithelial cancer cells were isolated from 12-week-old FP635/PyMT and FP635/PyMT/ETP mice and implanted into WT recipients with the same volume of Matrigel. For the 10B6 group, 10B6 was added in a Matrigel plug (10 μg/plug) admixed with ETP^+-cancer cells (i.e., ETP^+/10B6). A representative whole-body image was acquired 25 days after implantation using IVIS fluorescence scanner. Artificial color indicates fluorescence signal intensity accounts for tumor volume (AU). Quantitative results are represented as mean±SEM (n=3 per group). *P<0.05, unpaired t test. (FIGS. 8C-8I) 6 weeks after implantation, tumor tissues were excised from Ctrl-, ETP^+-, and ETP^+/10B6-cancer cells allografted mice and stained for H&E (FIG. 8C), Masson's Trichrome C (FIG. 8D), α-SMA (FIG. 8E), FSP-1 (FIG. 8F), CD31 (FIG. 8G), F4/80 (FIG. 8H), and Ki67 (FIG. 8I). Quantified results in FIGS. 8D-8I are mean±SEM (multiple images, n=3 per group). *P<0.05, **P<0.01, unpaired t test. Scale bars: 50 μm. (FIG. 8J) Working model for ETP in mammary tumor progression.
Isolation of mammary epithelial cancer cells and implantation procedures were as previously described. Tumor growth was monitored once weekly beginning 2 weeks after implantation.

[1] = test system: diet induced obese (DIO) mice; assay: diet induced obese mice, serum and hepatic lipid parameters; assay type: in vivo, mouse
Method: FIGS. 26A-26G: Endotrophin neutralization improves the metabolic phenotype. FIG. 26A. Two cohorts of mice (n=8) were exposed to high fat diet for 45 days after weaning. At the indicated time points (arrowheads), mice were treated with anti-endotrophin monoclonal antibodies (100 µg/mouse) or equivalent amounts of non-immune antibody. Body weights were monitored. FIG. 26B. Plasma Triglycerides and FIG. 26C. plasma free fatty acids (NEFAs) and FIG. 26D. plasma cholesterol were measured. FIG. 26E. Hepatic triglycerides and FIG. 26F. hepatic cholesterol were measured. Significant differences as indicated by unpaired student t-test. FIG. 26G. […] Scale bar=25 μm.
To evaluate the therapeutic potential of endotrophin neutralizing monoclonal antibodies on lipid parameters, a separate cohort of diet induced obese (DIO) mice were chronically treated with either IgG control or 10B6 (rat anti-mouse endotrophin monoclonal antibody) via intraperitoneal injection at 2 weeks after high-fat diet (HFD) challenge and maintained them on a HFD with antibody treatment for another 4 weeks, similar to the experiment described in FIG. 24.

[2] = test system: diet induced obese (DIO) mice; assay: diet induced obese mice, hyperinsulinemic-euglycemic clamp; assay type: in vivo; conditions: 10B6 100 μg/mouse vs IgG
Method: FIGS. 24A-24D: Endotrophin neutralization improves the metabolic phenotype. FIG. 24A. Two cohorts of mice (n=8) were exposed to high fat diet for 45 days after weaning. At the indicated time points (arrowheads), mice were treated with anti-endotrophin monoclonal antibodies (100 μg/mouse) or equivalent amounts of non-immune antibody. Body weights were monitored. FIG. 24B. Glucose infusion rate and FIG. 24C. Suppression of hepatic glucose efflux was measured in a hyperinsulinemic euglycemic clamp. FIG. 24D. Table of parameters measured prior and during the clamp. Significant differences as indicated by unpaired student t-test.
To evaluate the therapeutic potential of endotrophin neutralizing monoclonal antibodies on metabolic perspectives, diet induced obese (DIO) mice were chronically treated with either IgG control or 10B6 (rat anti-mouse endotrophin monoclonal antibody) via intraperitoneal injection at 2 weeks after high-fat diet (HFD) challenge and maintained them on a HFD with antibody treatment for another 4 weeks. […] Strikingly, 10B6 treated DIO mice improved whole-body insulin sensitivity, as determined by the amount of glucose required to maintain euglycemia (FIG. 24B) and by the amount of suppression of hepatic glucose efflux (FIGS. 24C and D).

PyMT mice = assay: 10B6 treatment of PyMT mice, tumor growth; assay type: in vivo; conditions: 10B6 200 μg/mouse i.p. twice weekly, 9 to 13 weeks of age, vs isotype control IgG
Method: as §2, with “(FIGS. 8C-8I) 6 weeks after implantation, tumor tissues were excised from Ctrl-, ETP^+-, and ETP^+/10B6-cancer cells allografted mice and stained for H&E (FIG. 8C), Masson's Trichrome C (FIG. 8D), α-SMA (FIG. 8E), FSP-1 (FIG. 8F), CD31 (FIG. 8G), F4/80 (FIG. 8H), and Ki67 (FIG. 8I).” left out, “Scale bars: 50 μm. (FIG. 8J) Working model for ETP in mammary tumor progression.” left out
Tumor onset was monitored twice weekly by palpation. Tumor sizes were measured with a digital caliper twice weekly and the volumes were calculated as […]. […] Metastatic tumor growth was determined by histological analysis with H&E stained lung tissues.

Molecule | response of endotrophin+-tumors compared to control (Ctrl)-tumors (endotrophin+-tumors) | response of PyMT/endotrophin mice to cisplatin treatment (PyMT/endotrophin mice) | tumor regression (ETP+-cancer cells; 6 weeks after implantation) | ETP+-cancer cell growth (fluorescence imaging) (ETP+-cancer cells; 10B6 10 μg/plug) | ETP-mediated tumor stromal expansion (ETP+-cancer cells; H&E, 6 weeks after implantation) | ETP-mediated increase in fibrosis and stromal expansion (ETP+-cancer cells; Masson's Trichrome C, α-SMA, FSP-1, CD31, F4/80) | hepatic cholesterol levels ([1]; 10B6 vs IgG) | levels of hepatic triglycerides ([1]; 10B6 vs IgG) | levels of serum triglyceride ([1]; 10B6 vs IgG) | serum cholesterol levels ([1]; 10B6 vs IgG) | serum free fatty acids ([1]; 10B6 vs IgG) | hepatic lipid accumulation ([1]; H&E stains, 10B6 vs IgG control) | whole-body insulin sensitivity (glucose required to maintain euglycemia, suppression of hepatic glucose efflux) [2] | tumor growth (PyMT mice)
N.N.[Cl][Pt][Cl] [cisplatin, cis-diammine-dichloro-platinum] | more resistant; also recorded: increased cisplatin resistance | resistant | – | – | – | – | – | – | – | – | – | – | – | –
10B6: rat anti-mouse endotrophin monoclonal antibody; light chain variable SEQ ID NO: 2, heavy chain variable SEQ ID NO: 4 (antibody, V domains shown) VH: QVQLQQSGPELAKPGSSVKISCKASGYTFTSYEMHWIKQRPGQGLEWIGYIYPESGSTGYNEKFKGKATLTVDKSSPTAYMQLSSLTPDNSAVYFCTRGLRVLGYVMDVWGHGTSVTVSS VL: DVQLTQSPSFLSASVGDRVTINCKASQNINKYLNWYQQKLGEAPKRLIYNTNNLQTGIPSRFSGSASGTDYTLTISSLHPEDFATYFCLQHSSLYTFGAGTKLELK | – | – | triggered tumor regression | effectively attenuated | inhibited | completely blocked | comparable | improved | dramatically improved | less affected | dramatically improved | significantly reduced | improved | significantly attenuated
